Laboratory results reported in patent publication US20190054182A1.
Read-outs that look alike come from different tables or passages of the source.

B1: V1/V2 directed Ab “a” (antibody, V domains shown)
VH: QVHLTQSGPEVRKPGTSVKVSCKAPGNTLKTYDLHWVRSVPGQGLQWMGWISHEGDKKVIVERFKAKVTIDWDRSTNTAYLQLSGLTSGDTAVYYCAKGSKHRLRDYALYDDDGALNWAVDVDYLSNLEFWGQGTAVTVSS
VL: DFVLTQSPHSLSVTPGESASISCKSSHSLIHGDRNNYLAWYVQKPGRSPQLLIYLASSRASGVPDRFSGSGSDKDFTLKISRVETEDVGTYYCMQGRESPWTFGQGTKVDIK
B2: MPER Ab (antibody, V domains shown)
VH: EVRLVESGGGLVKPGGSLRLSCSASGFDFDNAWMTWVRQPPGKGLEWVGRITGPGEGWSVDYAESVKGRFTISRDNTKNTLYLEMNNVRTEDTGYYFCARTGKYYDFWSGYPPGEEYFQDWGQGTLVIVSS
VL: ASELTQDPAVSVALKQTVTITCRGDSLRSHYASWYQKKPGQAPVLLFYGKNNRPSGIPDRFSGSASGNRASLTITGAQAEDEADYYCSSRDKSGSRLSVFGGGTKLTVL
B3: V1/V2 directed Ab “b” (antibody, V domains shown)
VH: QVQLVESGGGVVQPGTSLRLSCAASQFRFDGYGMHWVRQAPGKGLEWVASISHDGIKKYHAEKVWGRFTISRDNSKNTLYLQMNSLRPEDTALYYCAKDLREDECEEWWSDYYDFGKQLPCAKSRGGLVGIADNWGQGTMVTVSS
VL: QSVLTQPPSVSAAPGQKVTISCSGNTSNIGNNFVSWYQQRPGRAPQLLIYETDKRPSGIPDRFSASKSGTSGTLAITGLQTGDEADYYCATWAASLSSARVFGTGTKVIVL
B4: Binding Protein 2 (protein)
light 1: DFVLTQSPHSLSVTPGESASISCKSSHSLIHGDRNNYLAWYVQKPGRSPQLLIYLASSRASGVPDRFSGSGSDKDFTLKISRVETEDVGTYYCMQGRESPWTFGQGTKVDIKDKTHTASELTQDPAVSVALKQTVTITCRGDSLRSHYASWYQKKPGQAPVLLFYGKNNRPSGIPDRFSGSASGNRASLTITGAQAEDEADYYCSSRDKSGSRLSVFGGGTKLTVLDKTHTRTVAAPSVFIFPPSDEQLKSGTASVVCLLNNFYPREAKVQWKVDNALQSGNSQESVTEQDSKDSTYSLSSTLTLSKADYEKHKVYACEVTHQGLSSPVTKSFNRGEC
heavy 1: EVRLVESGGGLVKPGGSLRLSCSASGFDFDNAWMTWVRQPPGKGLEWVGRITGPGEGWSVDYAESVKGRFTISRDNTKNTLYLEMNNVRTEDTGYYFCARTGKYYDFWSGYPPGEEYFQDWGQGTLVIVSSDKTHTQVHLTQSGPEVRKPGTSVKVSCKAPGNTLKTYDLHWVRSVPGQGLQWMGWISHEGDKKVIVERFKAKVTIDWDRSTNTAYLQLSGLTSGDTAVYYCAKGSKHRLRDYALYDDDGALNWAVDVDYLSNLEFWGQGTAVTVSSDKTHTASTKGPSVFPLAPSSKSTSGGTAALGCLVKDYFPEPVTVSWNSGALTSGVHTFPAVLQSSGLYSLSSVVTVPSSSLGTQTYICNVNHKPSNTKVDKKVEPKSCDKTHTCPPCPAPELLGGPSVFLFPPKPKDTLMISRTPEVTCVVVDVSHEDPEVKFNWYVDGVEVHNAKTKPREEQYNSTYRVVSVLTVLHQDWLNGKEYKCKVSNKALPAPIEKTISKAKGQPREPQVYTLPPCRDELTKNQVSLWCLVKGFYPSDIAVEWESNGQPENNYKTTPPVLDSDGSFFLYSKLTVDKSRWQQGNVFSCSVLHEALHSHYTQKSLSLSPG
heavy 2: RAHLVQSGTAMKKPGASVRVSCQTSGYTFTAHILFWFRQAPGRGLEWVGWIKPQYGAVNFGGGFRDRVTLTRDVYREIAYMDIRGLKPDDTAVYYCARDRSYGDSSWALDAWGQGTTVVVSAASTKGPSVFPLAPSSKSTSGGTAALGCLVKDYFPEPVTVSWNSGALTSGVHTFPAVLQSSGLYSLSSVVTVPSSSLGTQTYICNVNHKPSNTKVDKKVEPKSCDKTHTCPPCPAPELLGGPSVFLFPPKPKDTLMISRTPEVTCVVVDVSHEDPEVKFNWYVDGVEVHNAKTKPREEQYNSTYRVVSVLTVLHQDWLNGKEYKCKVSNKALPAPIEKTISKAKGQPREPQVCTLPPSRDELTKNQVSLSCAVKGFYPSDIAVEWESNGQPENNYKTTPPVLDSDGSFFLVSKLTVDKSRWQQGNVFSCSVLHEALHSHYTQKSLSLSPG
light 2: YIHVTQSPSSLSVSIGDRVTINCQTSQGVGSDLHWYQHKPGRAPKLLIHHTSSVEDGVPSRFSGSGFHTSFNLTISDLQADDIATYYCQVLQFFGRGSRLHIKRTVAAPSVFIFPPSDEQLKSGTASVVCLLNNFYPREAKVQWKVDNALQSGNSQESVTEQDSKDSTYSLSSTLTLSKADYEKHKVYACEVTHQGLSSPVTKSFNRGEC
B5: Binding Protein 3 (protein)
light 1: ASELTQDPAVSVALKQTVTITCRGDSLRSHYASWYQKKPGQAPVLLFYGKNNRPSGIPDRFSGSASGNRASLTITGAQAEDEADYYCSSRDKSGSRLSVFGGGTKLTVLDKTHTDFVLTQSPHSLSVTPGESASISCKSSHSLIHGDRNNYLAWYVQKPGRSPQLLIYLASSRASGVPDRFSGSGSDKDFTLKISRVETEDVGTYYCMQGRESPWTFGQGTKVDIKDKTHTRTVAAPSVFIFPPSDEQLKSGTASVVCLLNNFYPREAKVQWKVDNALQSGNSQESVTEQDSKDSTYSLSSTLTLSKADYEKHKVYACEVTHQGLSSPVTKSFNRGEC
heavy 1: QVHLTQSGPEVRKPGTSVKVSCKAPGNTLKTYDLHWVRSVPGQGLQWMGWISHEGDKKVIVERFKAKVTIDWDRSTNTAYLQLSGLTSGDTAVYYCAKGSKHRLRDYALYDDDGALNWAVDVDYLSNLEFWGQGTAVTVSSDKTHTEVRLVESGGGLVKPGGSLRLSCSASGFDFDNAWMTWVRQPPGKGLEWVGRITGPGEGWSVDYAESVKGRFTISRDNTKNTLYLEMNNVRTEDTGYYFCARTGKYYDFWSGYPPGEEYFQDWGQGTLVIVSSDKTHTASTKGPSVFPLAPSSKSTSGGTAALGCLVKDYFPEPVTVSWNSGALTSGVHTFPAVLQSSGLYSLSSVVTVPSSSLGTQTYICNVNHKPSNTKVDKKVEPKSCDKTHTCPPCPAPELLGGPSVFLFPPKPKDTLMISRTPEVTCVVVDVSHEDPEVKFNWYVDGVEVHNAKTKPREEQYNSTYRVVSVLTVLHQDWLNGKEYKCKVSNKALPAPIEKTISKAKGQPREPQVYTLPPCRDELTKNQVSLWCLVKGFYPSDIAVEWESNGQPENNYKTTPPVLDSDGSFFLYSKLTVDKSRWQQGNVFSCSVLHEALHSHYTQKSLSLSPG
heavy 2: B4 heavy 2
light 2: B4 light 2

What was measured:
[1] = biological target: 20 pseudotyped viruses representing 10 different HIV-1 clades; assay: cell-based or functional assay
[2] = biological target: panel of 208 different HIV-1 Env-pseudotyped viruses; assay: cell-based or functional assay
[3] = biological target: T1, MPER binding peptide (Acetyl-[…]-Ttds-Lys-(Biotin)-NH2) (HIV-1)
[4] = biological target: 20 pseudotyped viruses representing 10 different HIV-1 clades; assay: cell-based or functional assay; remark: listed apart in the source
[5] = biological target: T1, MPER binding peptide …; assay: SPR (Biacore) with the MPER binding peptide

Binder | Geometric Mean (IC80) [1] [µg/mL] | Median IC80 [1] [µg/mL] | Geometric Mean (IC80) [2] [µg/mL] | Median IC80 [2] [µg/mL] | Ka [3] [M⁻¹] | Kd [3] [nM] | koff [3] [s⁻¹] | kon [3] [M⁻¹ s⁻¹] | Geometric Mean (IC80) [4] [µg/mL] | Median IC80 [4] [µg/mL] | fold higher affinity than the MPER antibody [5] [fold]
B1 | 0.094 | 0.06 | 0.063 | 0.037 |  |  |  |  |  |  | 
B2 |  |  | 1.34 | 1.69 | 5.35e+07 | 18.7 | 0.00109 | 58500 |  |  | 
B3 |  |  |  |  |  |  |  |  | 0.039 | 0.051 | 
B4 | 0.222 | 0.375 | 0.028 | 0.026 | 1.65e+08 | 6.05 | 0.000697 | 115000 |  |  | 3.1
B5 | 0.287 | 0.469 | 0.051 | 0.045 | 6e+07 | 16.7 | 0.000779 | 46700 |  |  | 
